From paper PMC4330383 come the findings set out here.

The stoichiometry N is the number of molecules, sites or subunits per partner or assembly.

Test [1] concerns the target histones H3-H4 (full-length, recombinant Drosophila melanogaster) (Drosophila melanogaster) (UniProt P02299). Briefly: SEC-MALS; Superdex 200 10/300 GL Increase, 50 mM Tris pH 8.0, 1.5 M NaCl; for H3-H4 alone: tetramer of two H3-H4 dimers.
Test [2] shares this target. Kind of test: SEC-MALS; Superdex 200 10/300 GL Increase, 50 mM Tris pH 8.0, 0.5 M NaCl, 20°C. Background: SEC sorts molecules by how far they enter the pores of the column.

ASF1a (1–156), sequence (Q9Y294 1-156): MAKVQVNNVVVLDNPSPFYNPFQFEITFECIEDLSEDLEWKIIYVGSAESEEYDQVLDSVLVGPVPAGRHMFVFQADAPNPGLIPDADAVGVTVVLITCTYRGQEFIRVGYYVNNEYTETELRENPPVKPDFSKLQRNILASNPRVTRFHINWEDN

Regarding “ASF1a (1–156) (from UniProt Q9Y294 1-156) (domain or fragment; other documents disagree on this pair)”, the stoichiometry N (ASF1 per H3-H4 dimer (ratio H3:H4:ASF1)) in test [1] and in test [2] was 1 throughout.
For the substance “histones H3-H4 (full-length, recombinant Drosophila melanogaster) (from UniProt P02299 1-136; P84040 1-103) (complex)”, the stoichiometry N in test [1] (scale: H3-H4 dimers in the oligomer) is 2.
